Experimental data as given in the supplement of paper PMC7877785.
± gives the uncertainty stated by the source.

Assay: self-splicing fitness, log relative to wild type (ln ratio); higher = more splicing; Tetrahymena group I intron in knt gene, E. coli kanamycin selection, DiMSum; sequences stand for … in CUCUCU…GGAGGGAAAAGUUAUCAGGCAUGCACCUGGUAGCUAGUCUUUAAACCAAUAGAUUGCAUCGGUUUAAAAGGCAAGACCGUCAAAUUGCGGGAAAGGGGUCAACAGCCGUUCAGUACCAAGUCUCAGGGGAAACUUUGAGAUGGCCUUGCAAAGGGUAUGGUAAUAAGCUGACGGACAUGGUCCUAACCACGCAGCCAAGUCCUAAGUCAACAGAUCUUCUGUUGAUAUGGAUGCAGUUCACAGACUAAAUGUCGGUCGGGGAAGAUGUAUUCUUCUCAUAAGAUAUAGUCGGACCUCUCCUUAAUGGGAGCUAGCGGAUGAAGUGAUGCAACACUGGAGCCGCUGGGAACUAAUUUGUAUGCGAAAGUAUAUUGAUUAGUUUUGGAGUACUCGUGGUCG
Outline: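 The eight P1ex-region nucleotides of an intron in the knt kanamycin-resistance gene on pET-22b(+) were all randomised and the library put into E. coli BL21(DE3). Six replicate transformations were grown overnight at 37°C or 30°C on LB agar with or without 25 μg/mL kanamycin, together with 100 μg/mL carbenicillin, 50 μM IPTG and 0.2% rhamnose. Colonies were pooled and amplicon-sequenced on an Illumina HiSeq 2500. Fitness from DiMSum is the error-weighted combination of wild-type-normalised replicate fold changes, kanamycin over none.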

| Sequence | self-splicing fitness (ln) (30 °C) | self-splicing fitness (ln) (37 °C) |
| --- | --- | --- |
| AAUGAGCAAUAUUACGUUGA | -3.71 ± 0.24 | -2.25 ± 0.17 |
| AAAGAGCAAUAUUACGAUAG | -3.88 ± 0.23 | -2.9 ± 0.2 |
| UACUAGCAAUAUUACGAUCG | 0.0068 ± 0.092 | 0.387 ± 0.12 |
| AAUAAGCAAUAUUACGAACU | -0.169 ± 0.11 | 0.509 ± 0.14 |
| CCGAAGCAAUAUUACGGUGC | -3.26 ± 0.3 | -2.26 ± 0.39 |
| UUGAAGCAAUAUUACGCGCU | -1.72 ± 0.093 | -1 ± 0.13 |
| GCCCAGCAAUAUUACGCUAU | -0.826 ± 0.082 | -0.309 ± 0.086 |
| CCCAAGCAAUAUUACGAACC | – | -2.59 ± 0.35 |
| UGAAAGCAAUAUUACGGCCG | -0.266 ± 0.091 | 0.807 ± 0.15 |
| AAUUAGCAAUAUUACGUGCG | -0.879 ± 0.12 | -0.209 ± 0.14 |
| CAUUAGCAAUAUUACGGAAU | -2.87 ± 0.29 | -2.61 ± 0.31 |
| AUCUAGCAAUAUUACGGUGG | -4.43 ± 0.46 | -2.53 ± 0.19 |
| UGACAGCAAUAUUACGGGAU | -3.3 ± 0.17 | -2.94 ± 0.15 |
| AGCGAGCAAUAUUACGUAUC | – | -3.38 ± 0.39 |
| AAAAAGCAAUAUUACGUUAG | -3.37 ± 0.17 | -2.61 ± 0.16 |
| CACAAGCAAUAUUACGCUCU | -3.04 ± 0.24 | -1.38 ± 0.17 |
| GUGUAGCAAUAUUACGCGCG | -2.48 ± 0.36 | -2.62 ± 0.38 |
| AAGGAGCAAUAUUACGCGCG | -2.19 ± 0.24 | -0.975 ± 0.23 |
| GAUCAGCAAUAUUACGAUGA | -0.0415 ± 0.095 | 0.313 ± 0.12 |
| GCUCAGCAAUAUUACGGCAC | -1.11 ± 0.21 | -0.084 ± 0.21 |
| AUCUAGCAAUAUUACGGCGC | -0.932 ± 0.11 | -0.0721 ± 0.14 |
| GAUGAGCAAUAUUACGUGUG | -2.57 ± 0.14 | -1.45 ± 0.12 |
| UUCCAGCAAUAUUACGCAGA | -2.09 ± 0.21 | -1.32 ± 0.16 |
| AAGGAGCAAUAUUACGUUGU | -2.61 ± 0.15 | -2.53 ± 0.21 |

| Sequence | self-splicing fitness (ln) (30 °C) | self-splicing fitness (ln) (37 °C) |
| --- | --- | --- |
| UUAUAGCAAUAUUACGGGCU | -2 ± 0.33 | -1.3 ± 0.22 |
| CCCGAGCAAUAUUACGGAGU | -3.46 ± 0.25 | -2.87 ± 0.22 |
| AUAAAGCAAUAUUACGUUCU | 0.0113 ± 0.08 | 0.404 ± 0.12 |
| CAACAGCAAUAUUACGCACA | -1.23 ± 0.077 | -0.561 ± 0.083 |
| ACGGAGCAAUAUUACGUGGG | -3.99 ± 0.18 | -2.29 ± 0.15 |
| ACGUAGCAAUAUUACGAGCU | -1.36 ± 0.12 | -1.06 ± 0.14 |
| AGAUAGCAAUAUUACGCUGG | -3.38 ± 0.34 | -1.56 ± 0.25 |
| CUGUAGCAAUAUUACGGACG | -1.53 ± 0.12 | -0.319 ± 0.15 |
| GGCUAGCAAUAUUACGGUUG | -0.166 ± 0.076 | -0.197 ± 0.098 |
| UUCAAGCAAUAUUACGUGCU | -4.47 ± 0.42 | -2.86 ± 0.35 |
| AUGUAGCAAUAUUACGUCAU | -1.81 ± 0.059 | -0.896 ± 0.069 |
| UUAAAGCAAUAUUACGUGGG | -1.65 ± 0.1 | -2.03 ± 0.17 |
| AUACAGCAAUAUUACGACUC | -0.976 ± 0.086 | 0.311 ± 0.11 |
| CAAAAGCAAUAUUACGUUGC | -3.74 ± 0.18 | -3.17 ± 0.23 |
| UGCAAGCAAUAUUACGGAAG | -3.38 ± 0.14 | -1.44 ± 0.1 |
| CGCAAGCAAUAUUACGGGGG | -3.39 ± 0.18 | -1.12 ± 0.13 |
| GACUAGCAAUAUUACGCGUA | -0.78 ± 0.11 | -0.344 ± 0.097 |
| AUAGAGCAAUAUUACGUGUC | -2.81 ± 0.33 | -2.17 ± 0.36 |
| CGGCAGCAAUAUUACGUACG | -3.05 ± 0.17 | -1.31 ± 0.16 |
| CUACAGCAAUAUUACGUCGU | -3.3 ± 0.35 | -2.83 ± 0.25 |
| AUACAGCAAUAUUACGUCUG | -2.93 ± 0.083 | -1.4 ± 0.08 |
| GCUGAGCAAUAUUACGUUGG | -2.52 ± 0.26 | -1.9 ± 0.28 |
| AGGCAGCAAUAUUACGUCAC | -1.74 ± 0.13 | -1.25 ± 0.28 |
| GCAGAGCAAUAUUACGGCAC | -1.64 ± 0.17 | -1.42 ± 0.26 |
